Paper PMC535902

Key:
[1] = biological target: Rhodobacter capsulatus porphobilinogen synthase (Rhodobacter capsulatus) (UniProt P42504); assay: SEC; Superose 6 (10 x 300 mm), 0.5 ml/min, 100 mM BTP pH 8.6, 100 uL of a 200 ug/ml solution; column calibrated with standards
[2] = biological target: Rhodobacter capsulatus porphobilinogen synthase (Rhodobacter capsulatus) (UniProt P42504); assay: AUC; sedimentation equilibrium, 4 °C, 10 mM Tris-HCl pH 7.7 with 0.1 mM DTT or 1 mM βME, 12.3 uM in monomer (440 ug/ml), 8,000-14,000 rpm, global fit to a single species model
[3] = biological target: Rhodobacter capsulatus porphobilinogen synthase (Rhodobacter capsulatus) (UniProt P42504)

Q: For “Rhodobacter capsulatus porphobilinogen synthase (from UniProt P42504 1-332) (enzyme)”, which stoichiometry N [1] is on record?
A: The stoichiometry N was 6.

Q: And the stoichiometry N [2]?
A: Its stoichiometry N is 6.

Q: What about the specific activity of the enzyme against protein concentration (0.01 to 40 ug/ml; from ~150 at the lowest to ~450 umol h^-1 mg^-1 at the highest) (μmol h^-1 mg^-1) [3] of the same substance?
A: The specific activity of the enzyme against protein concentration (0.01 to 40 ug/ml; from ~150 at the lowest to ~450 umol h^-1 mg^-1 at the highest) (μmol h^-1 mg^-1) was 450.
